Consider 13 sequences from a protein production outcome set (Wang et al. 2014).

The nature of the series: label from the status in PepcDB records.
Turning to “MRDLVSCFSENSINVTHPLSISSSSSSCSKYSTNNVCISPSLIPSIQTSITSIYRITLSKHLIIKVTWCNPHNNNGLSISVASADQNPSTTLKLNTSSRFFRKKKGNKSVDSDLGKIEVFWDLSSAKYDSNLCGPEPINGFYVIVLVDGQMGLLLGDSSEETLRKKGFSGDIGFDFSLVSRQEHFTGNNTFYSTKVRFVETGDSHEIVIRCNKETEGLKQSNHYPVLSVCIDKKTVIKVKRLQWNFRGNQTIFLDGLLVDLMWDVHDWFFSNQGACGRAVFMFRTRNGLDSSRLWLEEKIVKKDQQDKLDFSLFIYACKT”, the protein production entry is reported as “failed”.
Then “MSCVHYKFSSKLNYDTVTFDGLHISLCDLKKQIMGREKLKAADCDLQITNAQTKEEYTDDNALIPKNSSVIVRRIPIGGVKSTSKTYVISRTEPAMATTKAIDDSSASISLAQLTKTANLAEANASEEDKIKAMMSQSGHEYDPINYMKKPLGPPPPSYTCFRCGKPGHYIKNCPTNGDKNFESGPRIKKSTGIPRSFMMEVKDPNMKGAMLTNTGKYAIPTIDAGRLLFHKLGTMGHKQIDTYFWNRGDVYGATATQITHLREAYAIGKKEKPPFLPEEPSSSSEEDDPIPDELLCLICKDIMTDAVVIPCCGNSYCDECIRTALLESDEHTCPTCHQNDVSPDALIANKFLRQAVNNFKNETGYTKRLRKQLPPPPPPIPPPRPLIQRNLQPLMRSPISRQQDPLMIPVTSSSTHPAPSISSLTSNQSSLAPPVSGNPSSAPAPVPDITATVSISVHSEKSDGPFRDSDNKILPAAALASEHSKGTSSIAITALMEEKGYQVPVLGTPSLLGQSLLHGQLIPTTGPVRINTARPGGGRPGWEHSNKLGYLVSPPQQIRRGERSCYRSINRGRHHSERSQRTQGPSLPATPVFVPVPPPPLYPPPPHTLPLPPGVPPPQFSPQFPPGQPPPAGYSVPPPGFPPAPANLSTPWVSSGVQTAHSNTIPTTQAPPLSREEFYREQRRLKEEEKKKSKLDEFTNDFAKELMEYKKIQKERRRSFSRSKSPYSGSSYSRSSYTYSKSRSGSTRSRSYSRSFSRSHSRSYSRSPPYPRRGRGKSRNYRSRSRSHGYHRSRSRSPPYRRYHSRSRSPQAFRGQSPNKRNVPQGETEREYFNRYREVPPPYDMKAYYGRSVDFRDPFEKERYREWERKYREWYEKYYKGYAAGAQPRPSANRENFSPERFLPLNIRNSPFTRGRREDYVGGQSHRSRNIGSNYPEKLSARDGHNQKDNTKSKEKESENAPGDGKGNKHKKHRKRRKGEESEGFLNPELLETSRKSREPTGVEENKTDSLFVLPSRDDATPVRDEPMDAESITFKSVSEKDKRERDKPKAKGDKTKRKNDGSAVSKKENIVKPAKGPQEKVDGERERSPRSEPPIKKAKEETPKTDNTKSSSSSQKDEKITGTPRKAHSKSAKEHQETKPVKEEKVKKDYSKDVKSEKLTTKEEKAKKPNEKNKPLDNKGEKKKKK”, with “not failed”.
For “MGYRNLQDCVFDLEARGDLVRIDVETDPNIEIGAIQRRVYQAGGPALLFTRVKGCRFPMLGNLFGTMARTKFIFRDTLDDIRRLVELKINPTAVLKNPKEYAGAPLAALRLLPRQVSRGPILGHRTTIAELPQLKSWPMDGGPFVTLPQVYSESPKRPGFRFSNLGMYRVQLAGNDYRLNEEVGVHYQIHRGIGVHHAEAIERGEPLRVNIFVGGAPSMTVAAVMPLPEGLPELSFAGLLAGHRLAMVCRRGELPMPAEADFVITGTIDPNKTLPEGPFGDHLGYYSLAHPFPVLRVENVWHRDDAIWPFTSVGRPPQEDTTFGAFIHELTGALIPEVLPGVKGVHAVDAAGVHPLLLAVGSERYVPYEAERVPRELLTIASAILGNGQLSLAKYLFITPNEDNPPDIHHIDEFLTFILERADWRRDLHFHTRTTIDTLDYSGSGLNEGSKVIVAAAGPKRRDLPTEVPGGLRLPDGFTTPHVCLPGILAVTGPAFPGYGDNGAPDMERFCASFAPDDPINRFPLVVIVDDSAFTSRTLNNFLWVTFTRSNPAADIHGIGSSVRCKHWGCGGALVIDARVKPHHAPPLLDVPEIERRVDALGAPGGPLRGII” the value was “failed”; for “VVEFTTCPDKPGIPVKPSVKGKIHSHSFKITWDPPKDNGGATINKYVVEMAEGSNGNKWEMIYSGATREHLCDRLNPGCFYRLRVYCISDGGQSAVSESLLVQTPAV”, “not failed”; for “MSLNGSSIIEFEDMTWSQQVEDSKKPVVVMFYSPACPYCKAMEPYFEEYAKEYGSSAVFGRINIATNPWTAEKYGVQGTPTFKFFCHGRPVWEQVGQIYPSILKNAVRDMLQHGEECIRKSTPVGQDITGYVEGHHHHHH”, “not failed”.
With “MSSFLRPAVSGQDPFTTGNYRAISSHLAITPPVSVVIPAMNEAENLPYVFKSLPDWIHEVVLVDGNSTDGTVEVARELWPDVKVVEQRGKGKGDALITGFEACTGDIIVMVDADGSADGQEIVSYVSALVSGADFAKGSRFANGGGTSDMTPIRKLGNRVLCAAVNAKFGARYTDLCYGYNAFWRHCLDQIDLDCTGFEVETLMNIRVVKAGLKVQEIPSHEYLRIHGASNLRAVRDGLRVLKVILKERSNRRALRSRPHAMQLNSGQGEVSLEHHHHHH”, the protein production entry is recorded as “not failed”.
As for “MSSVSEVNVDIKDFLMSINLEQYLLHFHESGFTTVKDCAAINDSLLQKIGISPTGHRRRILKQLQIILSKMQDIPIYA”, the protein production result was “not failed”.
Then “MDPAMSFAEIFTVVVPVFLVIAVGYGTGRRALFDAGGAQALRELTMQLALPAALLLSIWQTPRRVLVEQLPLVGLLAFGLLGVYAVLLGVLRLAGRRPLRRAALFALACVQPQYAFMGTSILGGLFGTAQAAVPIAVAGILVNVVLDPVVLILLGMPEHPASRTAATAAAATSAVRRPALVTVGGGAPGESVEAAAPVAAGDASPEHRPSVLRTVGHALREPFCWGPVLGLILSVGGVGVPKVAGTSLTLLAGAASAAALLYVGVSVSRIGRPKLTPAVWAIALTSVVVLPLLVYGAGLAMASAADAAQAALIVAFPVSPVPLMFAARHGSKADVRTIGSAVVLSLLLSFVTLPLLIELIG”, with “not failed”; and “MKLQGSNILGQEQIDLLTTRGLNFVWFPKQLETIYRFQYQNGAAYEFRYRAPIILILYLFLSFGIYQVLPTEQVLSWLSYYSWVGIIVLIAWILSFIKKLNQWFDYYVGIGSSAAVAITFILINVLENGQDNVLFHAAMMYAIVIIYGAVGMRFYTAIIAGWVGGLIGILVSTYLNGDIDWTFLNRTYTFSSFLGMTLAYATDRQHRENYLQNCMIELNRIELMQQAQQLSLLSQQDALTGLANRRYLDETLDNEWRRALRHETPLTIMMVDIDFFKPYNDSLGHLKGDQCLKDIATAISSIAARSGDLVARYGGEEFLLLFPMTNAQQAKIQAERLMNAIKKIAIVHPCSSVSPYVTISVGVATTIPRLNDSISAFVSRADHALYQAKTNGRNQYQIALNEEQIVDLT”, with “failed”.
For the sequence “ELSERQRAEQKLLEVNQLQKGIFDVANYMIISTDRRGIISTFNRTAEEILGYTAAELIGQQTPLIFHDQEEMASEAVQLSQQLQQTIRPNSIDMFAIPAIQWGVYEREWTYITKTGDRLPVYVSITALRDDQGKVDGLVGV”, the protein production entry is on record as “failed”.
“MTILVEHFVPDSRVDEKKVIEERDNELVLDGGFVVPKSKETDAFDAPDMNFLGHSFRDYENGESERQQGVEEFYRMQHIHQTYDFVKKMRKEYGKLNKMEMSIWECCELLNNVVDESDPDLDEPQIQHLLQTAEAIRRDYPDEDWLHLTALIHDLGKVLLLPEFGGLPQWAVVGDTFPVGCTFDSANIHHKYFKGNHDINNPKYNTKNGVYTEGCGLDNVLMSWGHDDYMYLVAKKNGTTLPHAGLFIIRYHSFYPLHKAGAYTHLMNDEDRDDLKWLHVFNKYDLYSKSKVLVDVEQVKPYYISLINKYFPAKLKW”: the protein production entry is on record as “failed”.
Then “MRRQPKTRQESARMSIEAPETVVVSTWKVACDGGEGALGHPRVWLSIPHETGFVECGYCDRRYIHESFAAAKLEHHHHHH”, with “not failed”; and “MTEYVHGYSEREALRLSEQAETLEKLLHHDTVYPPGAKVLEAGCGIGAQTVILAKNNPDAEITSIDISPESLEKARENTEKNGIKNVKFLQANIFSLPFEDSSFDHIFVCFVLEHLQSPEEALKSLKKVLKPGGTITVIEGDHGSCYFHPEGKKAIEAWNCLIRVQAYMKGNSLVGRQIYPLLQESGFEKIRVEPRMVYIDSSKPELVDGFILKTIIPMVEGVKEQSLKMQIIKEEEWEKGIEELHKTAEHGGTFCYTFFKGWGTK”, with “failed”.
